Data set [1] can be described thus: Body weight loss / tolerability in H292-HGF xenograft study. Particulars: treatment and 2 weeks observation.
Procedure: At the time of routine monitoring, the animals were checked for any effects of tumor growth and treatments on normal behavior, such as mobility, visual estimation of food and water consumption, body weight gain/loss (body weights were measured twice weekly), eye/hair matting and any other abnormal effect.
Animals for which the body weight loss exceeded 20%, or for which the mean tumor size of the group exceeds 2000 mm^3 were euthanized. The study was terminated after two weeks of observation after the final dose.
Data set [2] deals with H292-HGF human lung cancer xenograft. The data set can be described thus: Efficacy of bispecific molecule and other inhibitors in H292-HGF xenograft model (tumor volume, T/C, T-C). The format is in vivo, SCID/Beige mice. Conditions: for antitumor activity: H292-HGF xenograft.
Procedure: The H292-HGF cells were maintained in vitro in RPMI1640 medium supplemented with fetal bovine serum (10% v/v), and L-glutamine (2 mM) at 37° C. in an atmosphere of 5% CO2 in air. The cells were routinely subcultured twice weekly by trypsin-EDTA treatment. The cells growing in an exponential growth phase were harvested and counted for tumor inoculation.
Each mouse was inoculated subcutaneously at the right flank region with H292-HGF tumor cells (2×10^6) in 0.1 ml of PBS with cultrex (1:1) for tumor development. The treatments were started when the mean tumor size reached 139 mm^3. […] The date of tumor cell inoculation was denoted as day 0.
Before commencement of treatment, all animals were weighed and the tumor volumes were measured. Since the tumor volume can affect the effectiveness of any given treatment, mice were assigned into groups using randomized block design based upon their tumor volumes. […] The randomized block design was used to assign experimental animals to groups. First, the experimental animals were divided into homogeneous blocks according to their initial tumor volume. Secondly, within each block, randomization of experimental animals to treatments was conducted.
The major endpoint was whether tumor growth can be delayed or tumor bearing mice can be cured. Tumor size was measured twice weekly in two dimensions using a caliper, and the volume was expressed in mm^3 using the formula: V=0.5a×b^2 where a and b are the long and short diameters of the tumor, respectively. The tumor size was then used for calculations of both T-C and T/C values. T-C was calculated with T as the time (in days) required for the mean tumor size of the treatment group to reach 1000 mm^3, and C was the time (in days) for the mean tumor size of the control group to reach the same size. The T/C value (in percent) was an indication of antitumor efficacy; T and C were the mean volume of the treated and control groups, respectively, on a given day. Complete tumor regression (CR) is defined as tumors that are reduced to below the limit of palpation (62.5 mm^3). Partial tumor regression (PR) is defined as tumors that are reduced from initial tumor volume. A minimum duration of CR or PR in 3 or more successive tumor measurements is required for a CP or PR to be considered durable.
Statistical analyses of difference in tumor volume among the groups were evaluated using a one-way ANOVA followed by individual comparisons using Games-Howell (equal variance not assumed). All data were analyzed using SPSS 18.0. p<0.05 was considered to be statistically significant.
Data set [3] has as its system H292-HGF tumor xenografts. The data set can be described thus: Tumor efficacy study with bispecific EGFR/c-Met molecules (tumor growth inhibition). The format is in vivo, SCID Beige mice. Conditions: 25 mg/kg three times per week (FIG. 10). The protocol:
One week after implantation, mice were stratified into groups with equivalent tumor volumes (mean tumor volume=77.9+/−1.7 mm^3). Mice were dosed three times per week with the bispecific molecules and tumor volumes were recorded twice weekly.

Another data set deals with H1573 cells. The data set can be described thus: Cytotoxicity assay of cytotoxin conjugates in H1573 cells. The format is cell-based, human. Particulars: MMAF conjugates, Cell TiterGlo at 70 hours, read-out: IC50 (cell killing). The procedure: Cell killing was assessed by measuring viability of the EGFR-overexpressing human tumor cell line H1573 following exposure to the cysteine variant-cytotoxin conjugates. […] Cells were allowed to attach overnight at 37° C. in a humidified 5% CO2 atmosphere. Medium was aspirated from 96-well plate and cells were treated with 50 uL of fresh media and 50 uL of 2× inhibitor made up in fresh media. Cell viability was determined by an endpoint assay with Cell TiterGlo (Promega) at 70 hours. IC50 values were determined by fitting data to the equation for a sigmoidal dose response with variable slope using GraphPad Prism 5 (GraphPad Software).
Conjugates consisting of ECB147 cysteine variants, 83v2-cys, or Tencon-cys linked to a cytotoxic tubulin inhibitor from the auristatin family (FIG. 2) were tested for target-dependent cytotoxicity in cancer cells. The inhibitor was linked to the cysteine-containing protein via a non-cleavable PEG4 linker or an enzyme-cleavable valine-citrulline or valine-lysine linker.
A general note: Cellular ATP, detected with luciferase, serves as a proxy for viable cell number.

Data set [4] in a line: Analytical size exclusion chromatography (aggregation state, percent monomer). The format is physicochemical. Particulars: NEM-conjugated cysteine variants; SEC, Abs280. The protocol: Size exclusion chromatography was used to determine the aggregation state of the FN3 domains binding EGFR. Aliquots (10 μL) of each purified FN3 domain were injected onto a Superdex 75 5/150 column (GE Healthcare) at a flow rate of 0.3 mL/min in a mobile phase of PBS pH 7.4. Elution from the column was monitored by absorbance at 280 nm.
The percent monomer for each protein was determined by integrating the Abs280 signal and comparing the peak in the monomer region (5.5-6 minutes) to the peaks in the oligomer region (4-5.3 minutes).
Background: SEC sorts molecules by how far they enter the pores of the column.

The nature of data set [5]: Thermal stability by differential scanning calorimetry. The format is physicochemical. Conditions: cysteine-NEM conjugates; for First Scan Tm: DSC 25-100° C., 1° C. per minute; for Second Scan Tm: second identical scan. The procedure:
The thermal stability of cysteine-NEM conjugates was assessed by differential scanning calorimetry (DSC). The only the conjugates tested were those determined to express at high levels, conjugate efficiently, and retain EGFR binding. Additionally, cysteine variants within the BC and FG loops were excluded. Stability data was generated by heating a 400 μL aliquot of the variant from 25° C. to 100° C. at a scan rate of 1° C. per minute in a VP-DSC instrument (MicroCal). A second identical scan was completed on the sample in order to assess the reversibility of thermal folding/unfolding. Data was fitted to a 2-state unfolding model in order to calculate the melting temperature (Table 10).
Thermal Stability of c-Met-Binding FN3 Domains Differential scanning calorimetry in PBS was used to assess the stability of each FN3 domain.
Background: Differential scanning calorimetry records heat flow against a reference as temperature is scanned.

Where a chain is given by its changes, count along the chain named. In names and notes the source's numbering stands. Entries after “also recorded” stand apart in the source; their conditions may differ.

In the case of `C#Cc1cccc(Nc2ncnc3cc(OCCOC)c(OCCOC)cc23)c1` [Erlotinib], the “toxicity / body weight loss / tolerability” value in data set [1] was “More severe body weight loss”.
Turning to `C[C@@H](Oc1cc(-c2cnn(C3CCNCC3)c2)cnc1N)c1c(Cl)ccc(F)c1Cl` [Crizotinib], the “toxicity / body weight loss / tolerability” value in data set [1] is on record as “More severe body weight loss”. In addition, the antitumor activity entry in data set [2] is given as “no antitumor activity”. In data set [2] (day 23), this molecule gave a T/C value of 120%.

B1: ECB18: bispecific P54AR4-83v2 / P114AR5P74-A5 linked to albumin binding domain, SEQ ID 118 (protein)
chain: MLPAPKNLVVSEVTEDSARLSWDDPWAFYESFLIQYQESEKVGEAIVLTVPGSERSYDLTGLKPGTEYTVSIYGVHNVYKDTNMRGLPLSAIFTTAPAPAPAPAPLPAPKNLVVSRVTEDSARLSWTAPDAAFDSFWIRYDEVVVGGEAIVLTVPGSERSYDLTGLKPGTEYYVNILGVKGGSISVPLSAIFTTAPAPAPAPAPLAEAKVLANRELDKYGVSDYYKNLINNAKTVEGVKALLDEILAALP
modifications: Bispecific EGFR/c-Met binding molecule
With B1, the “tumor growth inhibition (TGI)” value in data set [3] is “delay in tumor growth”.

B2: ECB38: bispecific P54AR4-83v2 / P114AR7P94-A3 linked to albumin binding domain, SEQ ID 120 (protein)
chain: B1 chain with D141F, V143F, V144L, V145G, G146S, Y173V, L177M, S183K, V186P
modifications: Bispecific EGFR/c-Met binding molecule
On to B2, for which the “toxicity / body weight loss / tolerability” value in data set [1] was “Slight toxicity; also recorded: tolerated in 7 out of 10 mice”. Moreover, in data set [2], the antitumor activity result was “complete tumor regression (CR) in all mice; also recorded: complete response”. Besides, the “tumor growth inhibition (TGI)” value in data set [3] is reported as “showed the most efficacy”.

B3: ECB39: bispecific P53A1R5-17v2 / P114AR7P94-A3 linked to albumin binding domain, SEQ ID 121 (protein)
chain: MLPAPKNLVVSEVTEDSARLSWADPHGFYDSFLIQYQESEKVGEAIVLTVPGSERSYDLTGLKPGTEYTVSIYGVHNVYKDTNMRGLPLSAIFTTAPAPAPAPAPLPAPKNLVVSRVTEDSARLSWTAPDAAFDSFWIRYFEFLGSGEAIVLTVPGSERSYDLTGLKPGTEYVVNIMGVKGGKISPPLSAIFTTAPAPAPAPAPLAEAKVLANRELDKYGVSDYYKNLINNAKTVEGVKALLDEILAALP
modifications: Bispecific EGFR/c-Met binding molecule
On to B3, for which the “tumor growth inhibition (TGI)” value in data set [3] was “showed the most efficacy”.

B4: S20C (protein)
chain 1: MLPAPKNLVVSEVTEDSARLCWDDPWAFYESFLIQYQESEKVGEAIVLTVPGSERSYDLTGLKPGTEYTVSIYGVHNVYKDTNMRGLPLSAIFTT
chain 2: LPAPKNLVVSEVTEDSARLCWDDPWAFYESFLIQYQESEKVGEAIVLTVPGSERSYDLTGLKPGTEYTVSIYGVHNVYKDTNMRGLPLSAIFTT
modifications: EGFR binding FN3 domain; EGFR-binding FN3 domain
The term IC50 denotes the concentration needed to halve the response being measured. Turning to B4, the 50% inhibitory concentration (IC50) in the data set on H1573 cells is 0.36 nM. The molecule also showed a Percent monomer in data set [4] of 94%. Also, in data set [5], the “First Scan Tm” value was found to be 70 °C and the “Second Scan Tm” value worked out at 70 °C.

B5: R54C (protein)
chain 1: B4 chain 1 with C21S, R55C
chain 2: B4 chain 2 with C20S, R54C
modifications: EGFR binding FN3 domain; EGFR-binding FN3 domain
Take B5: the IC50 in the data set on H1573 cells is 0.37 nM. In data set [4], this molecule had a Percent monomer of 96%. In data set [5], the “First Scan Tm” value is 65 °C and the “Second Scan Tm” value stood at 65 °C.

B6: I91C (protein)
chain: B4 chain 2 with C20S, I91C
Regarding B6, in the data set with H1573 cells, the half-inhibitory concentration (IC50) was 0.54 nM. Also, the Percent monomer in data set [4] is 100%. Also, in data set [5], the “First Scan Tm” value came to 70 °C and the “Second Scan Tm” value is 69 °C.

B7: S30C (protein)
chain 1: B4 chain 1 with C21S, S31C
chain 2: B4 chain 2 with C20S, S30C
modifications: EGFR binding FN3 domain; EGFR-binding FN3 domain
As for B7, the IC50 in the data set on H1573 cells was 0.78 nM. The same molecule gave a Percent monomer in data set [4] of 94%. In addition, in data set [5], the “First Scan Tm” value turned out to be 71 °C and the “Second Scan Tm” value was determined as 71 °C.

B8: V41C (protein)
chain 1: B4 chain 1 with C21S, V42C
chain 2: B4 chain 2 with C20S, V41C
modifications: EGFR binding FN3 domain; EGFR-binding FN3 domain
On to B8, for which the IC50 in the data set on H1573 cells stood at 1.13 nM. This molecule also registered a Percent monomer in data set [4] of 98%. Besides, in data set [5], the “First Scan Tm” value is 71 °C and the “Second Scan Tm” value is 71 °C.

B9: S70C (protein)
chain 1: B4 chain 1 with C21S, S71C
chain 2: B4 chain 2 with C20S, S70C
modifications: EGFR binding FN3 domain; EGFR-binding FN3 domain
As for B9, the IC50 in the data set with H1573 cells was determined as 1.14 nM. Moreover, in data set [4], the Percent monomer was 100%. In addition, in data set [5], the “First Scan Tm” value turned out to be 73 °C and the “Second Scan Tm” value stood at 72 °C.

B10: S38C (protein)
chain 1: B4 chain 1 with C21S, S39C
chain 2: B4 chain 2 with C20S, S38C
modifications: EGFR binding FN3 domain; EGFR-binding FN3 domain
With B10, the IC50 with H1573 cells worked out at 0.76 nM. The molecule further displayed a Percent monomer in data set [4] of 93%. Besides, in data set [5], the “First Scan Tm” value came to 65 °C and the “Second Scan Tm” value was 65 °C.

B11: T59C (protein)
chain 1: B4 chain 1 with C21S, T60C
chain 2: B4 chain 2 with C20S, T59C
modifications: EGFR binding FN3 domain; EGFR-binding FN3 domain
As for B11, the IC50 in the data set with H1573 cells was 0.44 nM. In addition, the Percent monomer in data set [4] was 100%. Besides, in data set [5], the “First Scan Tm” value amounted to 67 °C and the “Second Scan Tm” value turned out to be 67 °C.

B12: T48C (protein)
chain 1: B4 chain 1 with C21S, T49C
chain 2: B4 chain 2 with C20S, T48C
modifications: EGFR binding FN3 domain; EGFR-binding FN3 domain
Regarding B12, the half-inhibitory concentration (IC50) with H1573 cells worked out at 0.59 nM. The Percent monomer in data set [4] is reported as 90%. For the same molecule, in data set [5], the “First Scan Tm” value is 72 °C and the “Second Scan Tm” value was determined as 72 °C.

B13: S89C (protein)
chain 1: B4 chain 1 with C21S, S90C
chain 2: B4 chain 2 with C20S, S89C
modifications: EGFR binding FN3 domain; EGFR-binding FN3 domain
On to B13, for which, in the data set on H1573 cells, the IC50 was 0.94 nM. In data set [4], this molecule displayed a Percent monomer of 96%. Besides, in data set [5], the “First Scan Tm” value stood at 72 °C and the “Second Scan Tm” value came out at 71 °C.

Source of the values: patent US10662235B2, “Cysteine engineered fibronectin type III domain binding molecules” (Janssen Biotech, Inc., priority 2016, dated 2020).
